“And” between values parts separate entries of the source, which are not always exact repeats. Equal values may be shown once.
Target: pyruvate kinase M2 (mouse (endogenous in kidney tissue)) (UniProt P52480)
Test: cross-linking; mouse kidney tissue incubated in 250 uM disuccinimidyl suberate (DSS) for 30 min at room temperature, 8% SDS-PAGE, Western blot for PKM2; control mice, HFD-STZ-induced DN mice, and mice given acrolein scavengers (NAC, hydralazine, carnosine)

pyruvate kinase M2, P52480 1-531 (enzyme), sequence (P52480 whole entry): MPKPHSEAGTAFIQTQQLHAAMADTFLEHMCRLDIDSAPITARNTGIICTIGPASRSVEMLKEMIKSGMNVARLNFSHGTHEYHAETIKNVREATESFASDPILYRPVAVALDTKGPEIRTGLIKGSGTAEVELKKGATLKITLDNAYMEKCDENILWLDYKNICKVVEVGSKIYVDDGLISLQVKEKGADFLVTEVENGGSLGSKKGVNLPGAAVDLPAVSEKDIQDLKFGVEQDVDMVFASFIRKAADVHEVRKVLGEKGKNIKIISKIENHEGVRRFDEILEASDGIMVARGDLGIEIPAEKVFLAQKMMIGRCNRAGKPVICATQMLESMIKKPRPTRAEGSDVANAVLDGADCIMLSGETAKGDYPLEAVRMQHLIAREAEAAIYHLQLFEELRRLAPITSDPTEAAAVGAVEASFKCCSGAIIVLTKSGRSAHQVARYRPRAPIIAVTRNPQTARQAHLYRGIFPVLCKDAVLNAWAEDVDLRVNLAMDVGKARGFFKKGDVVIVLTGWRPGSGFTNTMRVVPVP

**Q.** “pyruvate kinase M2, P52480 1-531 (enzyme)” was tested. Which stoichiometry N did it give?
**A.** Its stoichiometry N is 2 and 4.

From paper PMC10050374
